According to US20220127354A1 (Amgen, published 2022):

Target: T1, muCDH19(44-770) with Flag tag (construct I, Mu EC1-5) (mouse)
T1 construct: leader left out; the entry starts at residue 44; also called Mo EC1-5; mouse Cadherin19
T1 chain: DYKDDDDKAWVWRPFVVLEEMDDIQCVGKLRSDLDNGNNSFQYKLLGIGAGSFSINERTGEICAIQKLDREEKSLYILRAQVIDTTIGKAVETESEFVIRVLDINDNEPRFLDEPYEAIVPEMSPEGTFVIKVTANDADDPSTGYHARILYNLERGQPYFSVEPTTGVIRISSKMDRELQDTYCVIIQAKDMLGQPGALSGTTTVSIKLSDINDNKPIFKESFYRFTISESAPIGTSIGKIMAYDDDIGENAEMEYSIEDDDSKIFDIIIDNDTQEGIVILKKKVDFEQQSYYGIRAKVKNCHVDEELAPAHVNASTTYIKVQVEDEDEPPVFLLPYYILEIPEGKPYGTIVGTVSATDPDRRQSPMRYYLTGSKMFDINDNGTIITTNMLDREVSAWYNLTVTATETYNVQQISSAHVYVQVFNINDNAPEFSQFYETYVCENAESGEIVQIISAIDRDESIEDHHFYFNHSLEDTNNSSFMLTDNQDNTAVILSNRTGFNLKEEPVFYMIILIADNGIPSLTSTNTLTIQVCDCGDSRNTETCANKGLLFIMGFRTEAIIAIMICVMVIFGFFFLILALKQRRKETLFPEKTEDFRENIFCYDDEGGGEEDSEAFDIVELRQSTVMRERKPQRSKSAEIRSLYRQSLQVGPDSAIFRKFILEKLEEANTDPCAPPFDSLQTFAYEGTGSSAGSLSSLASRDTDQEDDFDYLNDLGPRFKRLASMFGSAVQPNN
Assay: flow cytometry, transfected 293T cells
Description: The experiment included assaying the anti-CDH19 antibodies against mouse Cadherin19 to determine suitability for binning on these human/mouse chimeras.

binding result: binds
B1: anti-CDH19 antibody 2G6 (Ab ID 13588) (antibody, human IgG1, lambda, V domains shown)
VH: QVQLVESGGGVVQPGRSLRLSCAASGFTFSSYGMHWVRQAPGKGLEWVAFIWYDGSNKYYADSVKDRFTISRDNSKNTLYLQMKSLRAEDTAVYYCARRAGIIGTIGYYYGMDVWGQGTTVTVSS
VL: SYELTQPPSVSVSPGQTASITCSGDRLGEKYTCWYQQRPGQSPLLVIYQDTKRPSGIPERFSGSNSGNTATLTISGTQAMDEADYYCQAWDSSTVVFGGGTKLTVLG
notes: Bin 4
